# Reference: patent US20220259289A1 (Janssen / Centocor, published 2022)
# Residue numbers refer to the chain shown, from its start.
# B1: ISOP193GR9P1F7 (designed binder, not shown: small tags and cut ends)
# chain: LPAPKNLVVSRVTEDSARLSWTAPDAAFDSFDIPYVEYYPSGEAIVLNVPGSERSYDLTGLKPGTEYGVTIWGIKGGNESVPLTARFTT
# B2: ISOP193GR9P1G9 (designed binder, not shown: small tags and cut ends)
# chain: LPAPKNLVVSRVTEDSARLSWTAPDAAFDSFAIFYHEFANSGEAIDLPVPGSERSYDLTGLKPGTEYDVRIYGVKGGTASIPLDAEFTT
# B3: ISOP193GR9P1H2 (designed binder, not shown: small tags and cut ends)
# chain: LPAPKNLVVSRVTEDSARLSWTAPDAAFDSFEIPYIEVETIGEAIWLHVPGSERSYDLTGLKPGTEYSVGINGVKGGHTSNPLSARFTT
# B4: ISOP193HR9P1A10 (designed binder, not shown: small tags and cut ends)
# chain: LPAPKNLVVSRVTEDSARLSWTAPDAAFDSFDIYYLEPWGGGEAIVLTVPGSERSYDLTGLKPGTEYWVTIYGVKVCLGSNPLSAIFTT
# B5: ISOP193HR9P1F8 (designed binder, not shown: small tags and cut ends)
# chain: B4 chain with L36Y, P38L, W39R, G40L, W68L, L78Y, G79Y, N81T
# B6: ISOP193HR9P1G6 (designed binder, not shown: small tags and cut ends)
# chain: B4 chain with L36Y, P38L, W39R, G40L, W68L, L78E, G79Q, N81Y, F87S
# B7: ISOP193HR9P1G4 (designed binder, not shown: small tags and cut ends)
# chain: LPAPKNLVVSRVTEDSARLSWTAPDAAFDSFEIYYFELRLGGEAIVLTVPGSERSYDLTGLKPGTEYLVTIYGVKGGDYSPPLSAIFTT
# B8: ISOP193HR9P1G10 (designed binder, not shown: small tags and cut ends)
# chain: B7 chain with F87S
# B9: ISOP193HR9P1E8 (designed binder, not shown: small tags and cut ends)
# chain: B7 chain with E32D, F36Y
# B10: ISOP193HR9P1H10 (designed binder, not shown: small tags and cut ends)
# chain: B4 chain with L36Y, P38L, W39R, G40L, W68L
# B11: ISOP193HR9P1G5 (designed binder, not shown: small tags and cut ends)
# chain: B7 chain with E32D, F36Y, G77C, D78A, Y79A, P81D
# B12: ISOP193HR9P1F10 (designed binder, not shown: small tags and cut ends)
# chain: B7 chain with E32D, F36Y, D78Y, P81G
# B13: ISOP193HR9P1H7 (designed binder, not shown: small tags and cut ends)
# chain: B4 chain with D32E, L36R, W39H, G40Y
# B14: ISOP193HR9P1E3 (designed binder, not shown: small tags and cut ends)
# chain: B7 chain with D78A, P81N
# B15: ISOP193ER9P1F11 (designed binder, not shown: small tags and cut ends)
# chain: LPAPKNLVVSRVTEDSARLSWTAPDAAFDSFAIQYQEYVAHGEAIVLTVPGSERSYDLTGLKPGTEYHVRISGVKGGGVSWPLSAISTT
# B16: ISOP193GR9P1B3 (designed binder, not shown: small tags and cut ends)
# chain: LPAPKNLVVSRVTEDSARLSWTAPDAAFDSFAIGYVEWTANGEAIVLIVPGSERSYDLTGLKPGTEYVVRIRGGVKGGDSSFPLRADFTT
# B17: ISOP193FR9P1E1 (designed binder, not shown: small tags and cut ends)
# chain: LPAPKNLVVSRVTEDSARLSWTAPDAAFDSFIIRYLEDISYGEAIVLTVPGSERSYDLTGLKPGTEYHVGIEGVKGGNVSWPLSAIFTT
# B18: ISOP193ER9P1H3 (designed binder, not shown: small tags and cut ends)
# chain: B7 chain with F36L, L38V, L40N, G41R, L68H, T70G, Y72A, D78F, Y79H, P81F
# B19: ISOP193GR9P1E10 (designed binder, not shown: small tags and cut ends)
# chain: LPAPKNLVVSRVTEDSARLSWTAPDAAFDSFAISYTESIRQGEAIWLWVPGSERSYDLTGLKPGTEYEVTIGGVKGGIRSYPLWAWFTT
# B20: ISOP193FR9P1D1 (designed binder, not shown: small tags and cut ends)
# chain: LPAPKNLVVSRVTEDSARLSWTAPDAAFDSFFIQYLEDVTNGEAIVLTVPGSERSYDLTGLKPGTEYRVPIAGVKGGRDSQPLSAIFTT
# B21: ISOP193GR9P1F6 (designed binder, not shown: small tags and cut ends)
# chain: LPAPKNLVVSRVTEDSARLSWTAPDAAFDSFEIDYWEVESEGEAIVLFVPGSERSYDLTGLKPGTEYHVHIVGVKGGTPSYPLWADFTT
# B22: ISOP120GR5P1H6 (designed binder, not shown: small tags and cut ends)
# chain: LPAPKNLVVSRVTEDSARLSWTNEQITKYGFDSFLIQYQESEKVGEAIVLTVPGSERSYDLTGLKPGTEYTVSIYGVGRHYTVYDSNPLSAIFTT
# notes: FN3 domain (Centyrin); tested as E. coli lysate
# B23: ISOP120AR5P1F11 (designed binder, not shown: small tags and cut ends)
# chain: B22 chain with G67A
# notes: as for B22
# B24: ISOP120AR5P1G7 (designed binder, not shown: small tags and cut ends)
# chain: B22 chain with T22S, N23Q, E24H, Q25Y, I26L, T27S, K28P, Y29I, G30P
# notes: as for B22
# B25: ISOP120AR5P1H3 (designed binder, not shown: small tags and cut ends)
# chain: B22 chain with T22K, N23W, E24I, Q25S, I26H, T27E, K28P, Y29L, G30E
# notes: as for B22
# B26: ISOP120GR5P1F5 (designed binder, not shown: small tags and cut ends)
# chain: B21 chain
# notes: as for B22
# B27: ISOP120GR5P1E7 (designed binder, not shown: small tags and cut ends)
# chain: B21 chain with V46I
# notes: as for B22
# Target: unrelated Fc-fused recombinant protein
# Assay: ELISA, negative control Fc protein
row,ELISA Fc Control (RLU),Binder
1,880 RLU,B1
2,960 RLU,B2
3,1360 RLU,B3
4,5680 RLU,B4
5,31300 RLU,B5
6,8160 RLU,B6
7,960 RLU,B7
8,1360 RLU,B8
9,3120 RLU,B9
10,43900 RLU,B10
11,24200 RLU,B11
12,1280 RLU,B12
13,49800 RLU,B13
14,1120 RLU,B14
15,2240 RLU,B15
16,880 RLU,B16
17,2000 RLU,B17
18,1520 RLU,B18
19,1360 RLU,B19
20,1680 RLU,B20
21,1360 RLU,B21

# Target: T1, human serum albumin (human, UniProt P02768 25-609)
# T1 construct: Negative control of the ELISA; also called HSA
# Assay: ELISA, negative control HSA
# Method: (§1) Streptavidin-coated Maxisorp plates (Nunc catalog 436110) were blocked for 1 h in Starting Block T20 (Pierce) and then coated with biotinylated CD137 (using same antigen as in panning) or negative controls (an unrelated Fc-fused recombinant protein and human serum albumin) for 1 h. Plates were rinsed with TBST and diluted lysate was applied to plates for 1 h. Following additional rinses, wells were treated with HRP-conjugated anti-Centyrin antibody (PAB25) for 1 h and then assayed with POD (Roche catalog 11582950001).
# T1 sequence (P02768 25-609 limits assumed): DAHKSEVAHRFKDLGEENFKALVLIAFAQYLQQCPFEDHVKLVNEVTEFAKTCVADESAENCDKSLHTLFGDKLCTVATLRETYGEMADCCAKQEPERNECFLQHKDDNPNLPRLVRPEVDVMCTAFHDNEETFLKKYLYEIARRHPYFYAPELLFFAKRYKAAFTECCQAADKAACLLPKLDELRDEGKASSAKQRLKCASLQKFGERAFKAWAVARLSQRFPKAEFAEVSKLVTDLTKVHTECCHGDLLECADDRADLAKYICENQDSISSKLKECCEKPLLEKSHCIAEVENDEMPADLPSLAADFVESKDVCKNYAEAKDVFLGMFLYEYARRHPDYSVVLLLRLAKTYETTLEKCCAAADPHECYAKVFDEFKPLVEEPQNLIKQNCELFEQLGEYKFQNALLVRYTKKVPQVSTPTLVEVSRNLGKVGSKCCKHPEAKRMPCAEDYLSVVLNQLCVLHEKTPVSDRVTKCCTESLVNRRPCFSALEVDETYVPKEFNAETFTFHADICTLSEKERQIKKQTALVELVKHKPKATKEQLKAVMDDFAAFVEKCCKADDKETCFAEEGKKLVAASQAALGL
row,ELISA HSA (RLU),Binder
1,400 RLU,B1
2,480 RLU,B2
3,640 RLU,B3
4,1520 RLU,B4
5,6080 RLU,B5
6,1200 RLU,B6
7,560 RLU,B7
8,800 RLU,B8
9,1520 RLU,B9
10,10100 RLU,B10
11,3360 RLU,B11
12,960 RLU,B12
13,13700 RLU,B13
14,640 RLU,B14
15,400 RLU,B15
16,320 RLU,B16
17,880 RLU,B17
18,400 RLU,B18
19,480 RLU,B19
20,640 RLU,B20
21,400 RLU,B21

# Target: T2, recombinant biotinylated CD137 protein (Fc-fusion protein, R&D Systems 838-4B) (human, UniProt Q07011 24-186, biotinylated, sites not stated)
# T2 construct: Bought Fc fusion; also called CD137-Fc
# Assay: ELISA, lysate on biotinylated CD137-Fc
# Method: as §1
row,ELISA CD137 (RLU),Binder
1,3.48e+06 RLU,B1
2,3.05e+06 RLU,B2
3,5.31e+06 RLU,B3
4,1.27e+07 RLU,B4
5,1.61e+07 RLU,B5
6,1.15e+07 RLU,B6
7,1.72e+07 RLU,B7
8,1.56e+07 RLU,B8
9,1.63e+07 RLU,B9
10,1.48e+07 RLU,B10
11,1.51e+07 RLU,B11
12,1.58e+07 RLU,B12
13,4.6e+06 RLU,B13
14,1.78e+07 RLU,B14
15,1.12e+07 RLU,B15
16,3.46e+06 RLU,B16
17,1.16e+07 RLU,B17
18,1.05e+07 RLU,B18
19,1.05e+07 RLU,B19
20,8.13e+06 RLU,B20
21,9.85e+06 RLU,B21

# Target: unrelated Fc-fused recombinant protein (negative control)
# Assay: ELISA, bacterial lysate on plate-bound antigen, luminescence
row,ELISA Fc Control (RLU),Binder
1,400 RLU,B22
2,480 RLU,B23
3,560 RLU,B24
4,400 RLU,B25
5,400 RLU,B26
6,400 RLU,B27

# Target: T3, recombinant biotinylated human CD137 protein (Fc-fusion protein, R&D Systems 838-4B) (human, UniProt Q07011 24-186, biotinylated (site not stated))
# T3 construct: Bought Fc fusion; The ELISA used the same antigen as the panning; also called CD137-Fc; biotinylated CD137; not shown: Fc part of the bought fusion protein
# Assay: as above
# Method: as §1
row,ELISA CD137-Fc (RLU),Binder
1,721000 RLU,B22
2,715000 RLU,B23
3,568000 RLU,B24
4,769000 RLU,B25
5,1.28e+06 RLU,B26
6,1.13e+06 RLU,B27

# Target: T4, human serum albumin (human, UniProt P02768 25-609)
# T4 construct: Negative control antigen of the screening ELISA; also called HSA
# Assay: as above
# Method: as §1
# T4 sequence (P02768 25-609 limits assumed): as above
row,ELISA HSA (RLU),Binder
1,400 RLU,B22
2,320 RLU,B23
3,480 RLU,B24
4,480 RLU,B25
5,400 RLU,B26
6,480 RLU,B27
